Tested on: Jurkat cells
Experiment: Kill switch percent killing in Jurkat cells (flow cytometry)
Format: cell-based
Conditions: for percent killing in the absence of a scaffolded NS3a: danoprevir or grazoprevir treatment, 500 nM; for percent killing, miniaturized DNCR2 designs fused to caspase-9 with homo-oligomerized NS3a scaffolds: co-expressed with CAR-NS3a, CAR-NS3a-NS3a or dimer-NS3a
Experimental: Kill switch-positive cells (le5) were incubated for 24-48 hours with inducer drug before staining and analysis for death. Conditions were normalized to contain about 50% transduction positive (+) cells by adding untransduced Jurkat or primary T cells in order to get accurate statistics on death.
Flow cytometry was performed on a Ze5 cytometer (Biorad). To determine expression of markers, between 1×10^5-2×10^5 total cells were transferred to a U-bottom 96 well culture dish (Corning). Cells were washed twice with Cell Staining Buffer (BioLegend), then stained with Zombie Violet (1:1000, BioLegend) and ROR1-FC for ROR1-specific CAR constructs (20 min at room temperature). Cells were washed twice in Cell Staining Buffer, then stained with Annexin V-PE (BD) in 1× Annexin V Binding Buffer (BD) for 15 min at room temperature. After staining, cells were washed once with Annexin V Binding Buffer, resuspended in AnneinV Binding Buffer and immediately analyzed.
Flow cytometry data was analyzed using FlowJo 10 (Tree Star). Percent killing was calculated by gating on live cells, then calculating 100*((percent GFP positive DMSO condition)−(percent GFP positive drug condition))/(percent GFP positive DMSO condition).
We first tested for drug-induced death of Jurkat cells by fusing NS3a and DNCR2 separately to the catalytic domain of caspase-9 (NCDC). The small molecule inducible homodimer FKBP-F36V (iCasp9), which is dimerized by AP1903 (rimiducid) and the inducible heterodimer FKBP/rapamycin/FRB dimer (rapaCasp9) were used as controls. Briefly, Jurkat cells expressing NCDC, iCasp9, or rapaCasp9 were exposed to danoprevir, rimiducid or rapamycin, respectively, for 24 hours and analyzed by flow cytometry with gating set to measure killing in the top about 10% of cells expressing the highest amount of the GFP kill switch transduction marker.
To evaluate the kill switch designs of FIG. 8A, constructs were expressed in Jurkat cells, treated with 500 nM danoprevir (DNCR2-casp-9) or 500 nM grazoprevir (GNCR1-casp-9) and cell death measured by percent killing as described herein above.
The miniaturized versions of DNCR2, D1 and D9, were fused to caspase-9 and co-expressed in Jurkat cells with homo-oligomerized NS3a scaffolds. We also evaluated a CAR construct that included an additional copy of NS3a (CAR-2×NS3a). The original DNCR2-casp-9 was used as a control. Jurkat cells expressing different DNCR2 variants fused to caspase-9 along with CAR-NS3a, CAR-NS3a-NS3a, or dimer-NS3a were treated with 500 nM danoprevir and cell death was measured by percent killing as described herein above.
We explored the ability of other human killing domains to induce cell death in Jurkat and primary human T cells. We fused FKBP-F36V to a panel of killing domains that included caspase-9 D330A, caspase-9, caspase-1, caspase-4, and the necroptosis-inducing protein RIPK3. Briefly, Jurkat and primary human CD4+/CD8+ T cells expressing FKBP(F36V)-fused killing domains were treated with 10 nM rimiducid and cell death was measured by percent killing as described herein above.

B1: hexamer-NS3a: NS3a fused to C-terminus of designed homo-oligomeric helical bundle, hexamer (SEQ ID NO: 43) (protein)
chain: MTEDEIRKLRKLLEEAEKKLKKLEDKTRRSEEISKTDDDPKAQSLQLIAESLMLIAESLLIIAISLLLSSRNGSASGSASMKKKGSVVIVGRINLSGDTAYSQQTRGLEGCQETSQTGRDKNQVEGEVQVVSTATQSFLATSINGVLWTVYHGAGTRTIASPKGPVTQMYTNVDKDLVGWQAPQGSRSLTPCTCGSSDLYLVTRHADVIPVRRRGDSRGSLLSPRPISYLKGSAGGPLLCPAGHAVGIFRAAVSTRGVAKAVDFIPVESLETTMRSP
500 nM grazoprevir
  percent killing, NS3a scaffold with GNCR1-casp-9: modest death

B2: GNCR1-casp-9: caspase-9 fused to GNCR1 (protein)
chain: MDIEKLCKKAEEEAKEAQEKADELRQRHPDSQAAEDAEDLANLAVAAVLTACLLAQEHPNADIAKLCIKAASEAAEAASKAAELAQRHPDSQAARDAIKLASQAARAVILAIMLAAENPNADIAKLCIKAASEAAEAASKAAELAQRHPDSQAARDAIKLASQAAEAVERAIWLAAENPNADIAKKCIKAASEAAEEASKAAEEAQRHPDSQKARDEIKEASQKAEEVKERCKSGSASGSGGFGDVGALESLRGNADLAYILSMEPCGHCLIINNVNFCRESGLRTRTGSNIDCEKLRRRFSSLHFMVEVKGDLTAKKMVLALLELAQQDHGALDCCVVVILSHGCQASHLQFPGAVYGTDGCPVSVEKIVNIFNGTSCPSLGGKPKLFFIQACGGEQKDHGFEVASTSPEDESPGSNPEPDATPFQEGLRTFDQLDAISSLPTPSDIFVSYSTFPGFVSWRDPKSGSWYVETLDDIFEQWAHSEDLQSLLLRVANAVSVKGIYKQMPGCFNFLRKKLFFKTS
  percent killing in the absence of a scaffolded NS3a: did not induce Jurkat death

B3: dimer-NS3a: NS3a fused to C-terminus of designed homo-oligomeric helical bundle, dimer (SEQ ID NO: 42) (protein)
chain: MTRTEIIRELERSLREQEELAKRLKELLRELERLQREGSSDEDVRELLREIKELVEEIEKLAREQKYLVEELKRQDGSASGSASMKKKGSVVIVGRINLSGDTAYSQQTRGLEGCQETSQTGRDKNQVEGEVQVVSTATQSFLATSINGVLWTVYHGAGTRTIASPKGPVTQMYTNVDKDLVGWQAPQGSRSLTPCTCGSSDLYLVTRHADVIPVRRRGDSRGSLLSPRPISYLKGSAGGPLLCPAGHAVGIFRAAVSTRGVAKAVDFIPVESLETTMRSP
500 nM danoprevir
  percent killing, NS3a scaffold with DNCR2-casp-9: comparable killing to iCasp9

B4: DNCR2-casp-9: caspase-9 fused to DNCR2 (protein)
chain: MSSDEEEARELIERAKEAAERAQEAAERTGDPRVRELARELKRLAQEAAEEVKRDPSSSDVNEALKLIVEAIEAAVDALEAAERTGDPEVRELARELVRLAVEAAEEVQRNPSSSDVNEALHSIVYAIEAAIFALEAAERTGDPEVRELARELVRLAVEAAEEVQRNPSSRNVEHALMRIVLAIYLAEENLREAEESGDPEKREKARERVREAVERAEEVQRDPSGWLNHSGSASGSGGFGDVGALESLRGNADLAYILSMEPCGHCLIINNVNFCRESGLRTRTGSNIDCEKLRRRFSSLHFMVEVKGDLTAKKMVLALLELAQQDHGALDCCVVVILSHGCQASHLQFPGAVYGTDGCPVSVEKIVNIFNGTSCPSLGGKPKLFFIQACGGEQKDHGFEVASTSPEDESPGSNPEPDATPFQEGLRTFDQLAAISSLPTPSDIFVSYSTFPGFVSWRDPKSGSWYVETLDDIFEQWAHSEDLQSLLLRVANAVSVKGIYKQMPGCFNFLRKKLFFKTSGSGATNFSLLKQAGDVEENPG
  percent killing in the absence of a scaffolded NS3a: did not induce Jurkat death

B5: D1: minimized version of DNCR2 fused to caspase-9 (protein)
chain: MDDNEAEKLIREAEEAAKDAEEAAERTGDPEVRELARELVRLAKEAAEEVQRNPSSSDVNEALHSIVYAIEAAIFALEAAERTGDPEVRELARELVRLAVEAAEEVQRNPSSRNVEHALMRIVLAIYLAEENLRESGSASGSGGFGDVGALESLRGNADLAYILSMEPCGHCLIINNVNFCRESGLRTRTGSNIDCEKLRRRFSSLHFMVEVKGDLTAKKMVLALLELAQQDHGALDCCVVVILSHGCQASHLQFPGAVYGTDGCPVSVEKIVNIFNGTSCPSLGGKPKLFFIQACGGEQKDHGFEVASTSPEDESPGSNPEPDATPFQEGLRTFDQLAAISSLPTPSDIFVSYSTFPGFVSWRDPKSGSWYVETLDDIFEQWAHSEDLQSLLLRVANAVSVKGIYKQMPGCFNFLRKKLFFKTS
500 nM danoprevir
  percent killing, miniaturized DNCR2 designs fused to caspase-9 with homo-oligomerized NS3a scaffolds: comparable Jurkat death as the original DNCR2-casp-9

B6: D9: minimized version of DNCR2 fused to caspase-9 (protein)
chain: MELEEVLKDLEEALERLRNEELRRLIEEIAELLRRRDDHSIIYMIEALIFVIEAVERTGDERIEKLLEELIKRIRNGDDDSAIMRIVLAVYLIEENLRESGSASGSGGFGDVGALESLRGNADLAYILSMEPCGHCLIINNVNFCRESGLRTRTGSNIDCEKLRRRFSSLHFMVEVKGDLTAKKMVLALLELAQQDHGALDCCVVVILSHGCQASHLQFPGAVYGTDGCPVSVEKIVNIFNGTSCPSLGGKPKLFFIQACGGEQKDHGFEVASTSPEDESPGSNPEPDATPFQEGLRTFDQLAAISSLPTPSDIFVSYSTFPGFVSWRDPKSGSWYVETLDDIFEQWAHSEDLQSLLLRVANAVSVKGIYKQMPGCFNFLRKKLFFKTS
500 nM danoprevir
  percent killing, miniaturized DNCR2 designs fused to caspase-9 with homo-oligomerized NS3a scaffolds: comparable Jurkat death as the original DNCR2-casp-9

B7: CAR-2×NS3a: CAR construct that included an additional copy of NS3a (protein)
chain: CPPCPMFWVLVVVGGVLACYSLLVTVAFIIFWVKRGRKKLLYIFKQPFMRPVQTTQEEDGCSCRFPEEEEGGCELASGSASGSASMKKKGSVVIVGRINLSGDTAYSQQTRGLEGCQETSQTGRDKNQVEGEVQVVSTATQSFLATSINGVLWTVYHGAGTRTIASPKGPVTQMYTNVDKDLVGWQAPQGSRSLTPCTCGSSDLYLVTRHADVIPVRRRGDSRGSLLSPRPISYLKGSAGGPLLCPAGHAVGIFRAAVSTRGVAKAVDFIPVESLETTMRSPGSSGSSGSSGGKKKGSVVIVGRINLSGDTAYSQQTRGLEGCQETSQTGRDKNQVEGEVQVVSTATQSFLATSINGVLWTVYHGAGTRTIASPKGPVTQMYTNVDKDLVGWQAPQGSRSLTPCTCGSSDLYLVTRHADVIPVRRRGDSRGSLLSPRPISYLKGSAGGPLLCPAGHAVGIFRAAVSTRGVAKAVDFIPVESLETTMRSP
500 nM danoprevir
  percent killing, miniaturized DNCR2 designs fused to caspase-9 with homo-oligomerized NS3a scaffolds: increased killing further
